Results on 1 sequence are retold here after patent US20160272980.

The data set has as its system PTRI20 meganuclease (engineered, pCLS17038) (artificial). As to the kind of experiment: cell_activity. The following applies: P. tricornutum; 6.9% with SCTREX2 (p124); HGT up to 0.197% with donor (p171); empty vector 0.

The sequence “GTTTTACGTTGTACGACGTCTAGC (double strand) [PTRI20 target]” returned an activity (% mutagenesis) of 0.032.
